Test results: PMC314469, “Protein Interaction Networks by Proteome Peptide Scanning” (PLoS Biology, 2004)

T1: Boi1 SH3 (BOI1_YEAST), P38041
T1 chain: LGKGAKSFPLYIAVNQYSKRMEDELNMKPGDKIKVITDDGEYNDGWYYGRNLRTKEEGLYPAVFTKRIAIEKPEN

T2: Myo5 SH3 (MYO5_YEAST), Q04439
T2 chain: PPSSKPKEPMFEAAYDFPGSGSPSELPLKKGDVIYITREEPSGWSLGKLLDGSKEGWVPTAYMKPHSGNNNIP

T3: Yfr024 SH3 (LSB3_YEAST), P43603
T3 chain: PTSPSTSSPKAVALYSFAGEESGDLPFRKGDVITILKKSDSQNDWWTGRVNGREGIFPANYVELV

T4: Yhr016c SH3 (YSC84_YEAST), P32793
T4 chain: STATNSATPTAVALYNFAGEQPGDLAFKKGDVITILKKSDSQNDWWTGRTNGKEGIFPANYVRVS

T5: Boi2 SH3 (BOI2_YEAST), P39969
T5 chain: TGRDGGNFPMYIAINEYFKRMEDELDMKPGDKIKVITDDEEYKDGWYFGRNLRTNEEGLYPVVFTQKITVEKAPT

T6: Rvs167 SH3 (RV167_YEAST), P39743
T6 chain: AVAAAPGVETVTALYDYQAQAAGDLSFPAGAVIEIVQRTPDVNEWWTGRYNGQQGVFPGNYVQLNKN


What was measured:
Assay in all cases: SPOT array
[1] = target: T1, Boi1 SH3 (BOI1_YEAST), P38041
[2] = target: T2, Myo5 SH3 (MYO5_YEAST), Q04439
[3] = target: T3, Yfr024 SH3 (LSB3_YEAST), P43603
[4] = target: Sho1 SH3 (SHO1_YEAST), P40073
[5] = target: T4, Yhr016c SH3 (YSC84_YEAST), P32793
[6] = target: T5, Boi2 SH3 (BOI2_YEAST), P39969
[7] = target: T6, Rvs167 SH3 (RV167_YEAST), P39743

Sho1 SH3 (SHO1_YEAST), P40073, sequence (P40073 295-366): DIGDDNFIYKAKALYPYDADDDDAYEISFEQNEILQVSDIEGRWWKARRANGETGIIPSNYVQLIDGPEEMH

Row | Binder | normalised SPOT signal, Boehringer light units (BLU); mean over the file's lines of this peptide [1] | normalised SPOT signal, Boehringer light units (BLU); mean over the file's lines of this peptide [2] | normalised SPOT signal, Boehringer light units (BLU); mean over the file's lines of this peptide [3] | normalised SPOT signal, Boehringer light units (BLU); mean over the file's lines of this peptide [4] | normalised SPOT signal, Boehringer light units (BLU); mean over the file's lines of this peptide [5] | normalised SPOT signal, Boehringer light units (BLU); mean over the file's lines of this peptide [6] | normalised SPOT signal, Boehringer light units (BLU); mean over the file's lines of this peptide [7]
1 | ISHNKLSPSEPILS [YER132C 703-716] | 0 | 206 | 0 | 19.4 | 22.7 | 34 | 48.3
2 | KAALKYHPDKPTGD [YNL007C 28-41] | 21.4 | 156 | 32.9 | 60.7 | 18.6 | 18.7 | 84.8
3 | ISNRRPVPRRPSQP [YPR091C 658-671] | 4610 | 377 | 36800 | 129 | 17200 | 56.9 | 82100
4 | ISADKGFPLIPSGY [YLR290C 162-175] | 30.1 | 113 | 38.2 | 32.9 | 14.4 | 16.8 | 32.4
5 | IYHSKKQPLVPIGS [YML030W 25-38] | 182 | 294 | 189 | 144 | 86.8 | 21 | 160
6 | IQQNKQGPKIPFYL [YBR028C 374-387] | 107 | 86.9 | 19 | 19.8 | 5 | 12.3 | 23.5
7 | INTFKTLPTKPEMQ [YDL202W 181-194] | 37.3 | 167 | 110 | 14500 | 14.5 | 11.5 | 73.4
8 | INVEREAPMFPVPY [YHR014W 144-157] | 75.5 | 149 | 24.3 | 49.4 | 19.4 | 1.3 | 36.9
9 | IPYEKRDPTSPAPL [YLR129W 367-380] | 43.8 | 114 | 51.8 | 29.3 | 26.9 | 7.7 | 58.4

Next, values leading:

Row | normalised SPOT signal, Boehringer light units (BLU); mean over the file's lines of this peptide [1] | normalised SPOT signal, Boehringer light units (BLU); mean over the file's lines of this peptide [2] | normalised SPOT signal, Boehringer light units (BLU); mean over the file's lines of this peptide [3] | normalised SPOT signal, Boehringer light units (BLU); mean over the file's lines of this peptide [4] | normalised SPOT signal, Boehringer light units (BLU); mean over the file's lines of this peptide [5] | normalised SPOT signal, Boehringer light units (BLU); mean over the file's lines of this peptide [6] | normalised SPOT signal, Boehringer light units (BLU); mean over the file's lines of this peptide [7] | Binder
10 | 113 | 94.6 | 28.7 | 43.8 | 15.4 | 2.3 | 67.4 | ITDTKLFPGNPNLM [YFR029W 524-537]
11 | 92.4 | 94.2 | 63.9 | 116 | 71.1 | 0 | 3.5 | ITAEKSAPTSPEVY [YMR219W 1471-1484]
12 | 73.8 | 102 | 74.4 | 86.8 | 11.6 | 20.9 | 51.5 | IVNEKRTPALPSNL [YOR191W 260-273]
13 | 420 | 370 | 1400 | 111 | 44.2 | 31.5 | 104 | ITSIRGSPSLPKNK [YKL071W 35-48]
14 | 17300 | 82300 | 3260 | 99.1 | 167 | 26.7 | 294 | IPAPKLVPPPPRTR [YNR039C 117-130]
15 | 146 | 100 | 115 | 61.2 | 44.5 | 38.8 | 38.5 | IRTYKVVPLGPKAG [YBL088C 2501-2514]
16 | 2220 | 190 | 486 | 153 | 84.6 | 70.9 | 111 | ITRARYMPQDPNIV [YEL056W 121-134]
